Assay results from patent publication US20240101959A1, “USE OF IL-2R-BETA-GAMMA AGONIST PEPTIDES IN CELL MANUFACTURING” (MEDIKINE, INC., priority 2022, published 2024).
Read-outs that look alike come from different tables or passages of the source.

T1: hu-IL-2Rγc subunit (human), P31785
T1 chain: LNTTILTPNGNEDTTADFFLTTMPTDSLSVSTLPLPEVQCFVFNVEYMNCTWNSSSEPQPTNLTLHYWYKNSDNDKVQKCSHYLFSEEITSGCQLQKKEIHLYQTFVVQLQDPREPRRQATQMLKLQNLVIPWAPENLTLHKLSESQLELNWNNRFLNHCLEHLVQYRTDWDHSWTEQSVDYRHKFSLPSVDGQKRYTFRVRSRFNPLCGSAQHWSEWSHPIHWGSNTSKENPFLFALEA

T2: hu-IL-2Rβ subunit (human, UniProt P14784 27-240, limits assumed)
T2 construct: also called human interleukin-2 receptor subunit β; CD122
T2 sequence (looked up): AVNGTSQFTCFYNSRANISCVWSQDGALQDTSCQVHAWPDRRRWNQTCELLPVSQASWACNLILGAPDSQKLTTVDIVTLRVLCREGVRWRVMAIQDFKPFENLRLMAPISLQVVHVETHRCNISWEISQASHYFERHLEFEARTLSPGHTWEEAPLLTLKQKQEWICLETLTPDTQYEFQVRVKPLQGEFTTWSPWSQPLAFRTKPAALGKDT

T3: hu-IL-2Rγc subunit (human, UniProt P31785 23-262, limits assumed)
T3 sequence (looked up): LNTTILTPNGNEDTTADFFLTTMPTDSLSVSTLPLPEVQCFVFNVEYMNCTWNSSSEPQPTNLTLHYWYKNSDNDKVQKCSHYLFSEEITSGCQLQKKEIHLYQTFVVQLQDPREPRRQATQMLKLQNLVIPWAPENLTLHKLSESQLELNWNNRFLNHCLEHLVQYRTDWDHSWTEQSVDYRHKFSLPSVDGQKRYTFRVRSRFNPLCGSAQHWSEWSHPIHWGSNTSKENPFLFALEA


Assays:
[1] = biological target: T1, hu-IL-2Rγc subunit (human), P31785
[2] = biological target: T1, hu-IL-2Rγc subunit (human), P31785; test: phage ELISA competition assay
hu-IL-2Rβ subunit = biological target: T2, hu-IL-2Rβ subunit; test: phage ELISA competition assay
hu-IL-2Rγc subunit = biological target: T3, hu-IL-2Rγc subunit

Binder	IC50 [1] [µM]	IC50 [2] [µM]	IC50 (hu-IL-2Rβ subunit) [µM]	IC50 (hu-IL-2Rγc subunit) [µM]
IVCEDWRGVELCWI (modifications not checked) [SEQ ID NO 660]	< 100	< 10		
ANQNTVVECQDWHGVELCWQ (modifications not checked) [SEQ ID NO 665]	< 100	< 10		
SLPCWMAQLGDLCELH [SEQ ID NO 181]			< 100	
LNRSVWIECEEYEGVELCWL (modifications not checked) [SEQ ID NO 671]	< 100	< 10		
RPQIECQEWQGVELCWTREE (modifications not checked) [SEQ ID NO 678]	< 100	< 10		
EQQVVCQEWNGVELCWIEAG (modifications not checked) [SEQ ID NO 701]	< 100	< 10		
VVCQDWEGVELCWQ (modifications not checked) [SEQ ID NO 652]	< 100	< 10		
IECEEWRGVELCWQ (modifications not checked) [SEQ ID NO 638]	< 100	< 10		
AVCQDWYGVELCWCMQDILD (modifications not checked) [SEQ ID NO 705]	< 100	< 10		
DVVCQNWEGVDLCWH (modifications not checked) [SEQ ID NO 653]	< 100	< 10		
PYGVVCQDWAGVELCWVENR (modifications not checked) [SEQ ID NO 683]	< 100	< 10		
KSQVECQDWEGVELCWVVSE (modifications not checked) [SEQ ID NO 676]	< 100	< 10		
GGTWNMSELECQDWNGVEICWHGG [SEQ ID NO 740]				< 100
RTEVECEDWEGVELCWL (modifications not checked) [SEQ ID NO 713]	< 100	< 10		
GYGVLCQEWQGVELCWPVQREAGV (modifications not checked) [SEQ ID NO 682]	< 100	< 10		
KYIVECQEWGGVELCWPEMV (modifications not checked) [SEQ ID NO 697]	< 100	< 10		
VVCQEWEGVELCWQTGPGAHA (modifications not checked) [SEQ ID NO 699]	< 100	< 10		
IWGRTVVECQDWEGVELCWQ (modifications not checked) [SEQ ID NO 640]	< 100	< 10		
GPEVVCEEFNRVELCWVEYN (modifications not checked) [SEQ ID NO 696]	< 100	< 10		

Binder	IC50 [1] [µM]	IC50 [2] [µM]	IC50 (hu-IL-2Rβ subunit) [µM]	IC50 (hu-IL-2Rγc subunit) [µM]
INCQTWNGVELCWVDEGLYQ (modifications not checked) [SEQ ID NO 685]	< 100	< 10		
DRQVVCEEWDGVELCWIEES (modifications not checked) [SEQ ID NO 688]	< 100	< 10		
RPEVVCQEWEGVELCWISPL (modifications not checked) [SEQ ID NO 690]	< 100	< 10		
TWNMSELECQDWNGVEICWH (modifications not checked) [SEQ ID NO 668]	< 100	< 10		
DFERSYVVCQDWDGVELCWI (modifications not checked) [SEQ ID NO 648]	< 100	< 10		
RVQVECEDWNGVELCWPVRV (modifications not checked) [SEQ ID NO 687]	< 100	< 10		
SAPERWVECEDWQGVELCWV (modifications not checked) [SEQ ID NO 650]	< 100	< 10		
QLGVECQNWRGVELCWVSEI (modifications not checked) [SEQ ID NO 702]	< 100	< 10		
DVVCQNWDGVDLCWH (modifications not checked) [SEQ ID NO 657]	< 100	< 10		
VECQEWGGVELCWC (modifications not checked) [SEQ ID NO 645]	< 100	< 10		
GQGREVVVCHDWYGVELCWQ (modifications not checked) [SEQ ID NO 655]	< 100	< 10		
VECEEWGGVELCWLADEVMW (modifications not checked) [SEQ ID NO 706]	< 100	< 10		
DWRRSVVECQDWYGVELCWQ (modifications not checked) [SEQ ID NO 656]	< 100	< 10		
RLGVECQEWEGVDLCWISAF (modifications not checked) [SEQ ID NO 691]	< 100	< 10		
GLEIACEDWYGVELCWLRRA (modifications not checked) [SEQ ID NO 681]	< 100	< 10		
PVEVRCQEWEGVELCWVVGI (modifications not checked) [SEQ ID NO 695]	< 100	< 10		
SVEVVCEEWHGVELCWPVFI (modifications not checked) [SEQ ID NO 709]	< 100	< 10		
TDEVSCQEWEGVELCWIERQ (modifications not checked) [SEQ ID NO 694]	< 100	< 10		
GNDDSYIVCEEWKGVELCWI (modifications not checked) [SEQ ID NO 669]	< 100	< 10		

Binder	IC50 [1] [µM]	IC50 [2] [µM]	IC50 (hu-IL-2Rβ subunit) [µM]	IC50 (hu-IL-2Rγc subunit) [µM]
GGVMCERWQGVELCWLGG [SEQ ID NO 738]				< 100
ERPRSFIECQEWEGVELCWL (modifications not checked) [SEQ ID NO 663]	< 100	< 10		
GGDCSMWEGVELCWGG [SEQ ID NO 737]				< 100
PEGREVVVCRDWYGVELCWQ (modifications not checked) [SEQ ID NO 639]	< 100	< 10		
TAEVVCQEWDGVELCWIEVL (modifications not checked) [SEQ ID NO 703]	< 100	< 10		
TLGRTVVECQDWGGVELCWQ (modifications not checked) [SEQ ID NO 658]	< 100	< 10		
VSCQEWDGVELCWVDGDLAA (modifications not checked) [SEQ ID NO 679]	< 100	< 10		
IVCEEYNGVELCWVETSVKP (modifications not checked) [SEQ ID NO 700]	< 100	< 10		
RWAVSCQDWQGIELCWPEWD (modifications not checked) [SEQ ID NO 710]	< 100	< 10		
TANQTVVECQVWGGVELCWQ (modifications not checked) [SEQ ID NO 644]	< 100	< 10		
GGVGIECEEWAGVELCWLGG [SEQ ID NO 739]				< 100
IMCQEWDGVELCWLERDKAN (modifications not checked) [SEQ ID NO 680]	< 100	< 10		
KITVECQDWDGVELCWPTWI (modifications not checked) [SEQ ID NO 677]	< 100	< 10		
GDRPKEVVCEDWKGVELCWI (modifications not checked) [SEQ ID NO 662]	< 100	< 10		
IVCEEWRGVELCWL (modifications not checked) [SEQ ID NO 647]	< 100	< 10		
SPSIVCEEWAGVELCWVDYS (modifications not checked) [SEQ ID NO 704]	< 100	< 10		
SAGRQEVVCQDWNGVELCWI (modifications not checked) [SEQ ID NO 654]	< 100	< 10		
HSTVICQDWDGVELCWIEND (modifications not checked) [SEQ ID NO 707]	< 100	< 10		
